Laboratory results from the supplement of paper PMC7877785.
± gives the uncertainty stated by the source.

Assay: self-splicing fitness, log relative to wild type (ln ratio); higher = more splicing; Tetrahymena group I intron in knt gene, E. coli kanamycin selection, DiMSum; sequences stand for … in CUCUCU…GGAGGGAAAAGUUAUCAGGCAUGCACCUGGUAGCUAGUCUUUAAACCAAUAGAUUGCAUCGGUUUAAAAGGCAAGACCGUCAAAUUGCGGGAAAGGGGUCAACAGCCGUUCAGUACCAAGUCUCAGGGGAAACUUUGAGAUGGCCUUGCAAAGGGUAUGGUAAUAAGCUGACGGACAUGGUCCUAACCACGCAGCCAAGUCCUAAGUCAACAGAUCUUCUGUUGAUAUGGAUGCAGUUCACAGACUAAAUGUCGGUCGGGGAAGAUGUAUUCUUCUCAUAAGAUAUAGUCGGACCUCUCCUUAAUGGGAGCUAGCGGAUGAAGUGAUGCAACACUGGAGCCGCUGGGAACUAAUUUGUAUGCGAAAGUAUAUUGAUUAGUUUUGGAGUACUCGUGGUCG
In short: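 Library with all eight P1ex-region intron nucleotides randomised, intron inside the knt kanamycin-resistance gene on pET-22b(+), in E. coli BL21(DE3). Cells grew overnight at 37°C or 30°C on LB agar with or without 25 μg/mL kanamycin (plus 100 μg/mL carbenicillin, 50 μM IPTG, 0.2% rhamnose), in six replicate transformations. Pooled colonies were amplicon-sequenced on Illumina HiSeq 2500. DiMSum fitness is the error-weighted combination of wild-type-normalised replicate fold changes, kanamycin versus none.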

| Sequence | self-splicing fitness (ln) (30 °C) | self-splicing fitness (ln) (37 °C) |
| --- | --- | --- |
| GGACAGCAAUAUUACGCAGU | -4.28 ± 0.36 | -1.5 ± 0.24 |
| GGACAGCAAUAUUACGCCCA | -0.886 ± 0.45 | -0.212 ± 0.36 |
| GGACAGCAAUAUUACGCCUU | -0.676 ± 0.057 | -0.194 ± 0.069 |
| GGACAGCAAUAUUACGGAAC | -0.76 ± 0.1 | -0.102 ± 0.11 |
| GGACAGCAAUAUUACGGAAU | -1.19 ± 0.089 | -0.191 ± 0.12 |
| GGACAGCAAUAUUACGGCAC | -0.469 ± 0.12 | -0.25 ± 0.15 |
| GGACAGCAAUAUUACGGCUC | 0.0372 ± 0.08 | 0.377 ± 0.11 |
| GGACAGCAAUAUUACGGCUG | -3.23 ± 0.31 | -0.371 ± 0.18 |
| GGACAGCAAUAUUACGGGGU | -3.5 ± 0.17 | -2.17 ± 0.12 |
| GGACAGCAAUAUUACGGUCC | -3.67 ± 0.26 | -2.28 ± 0.23 |
| GGACAGCAAUAUUACGGUGU | -2.84 ± 0.11 | -1.89 ± 0.12 |
| GGACAGCAAUAUUACGGUUG | -1.41 ± 0.067 | -0.752 ± 0.083 |
| GGACAGCAAUAUUACGGUUU | -2.12 ± 0.072 | -0.504 ± 0.073 |
| GGACAGCAAUAUUACGUAUC | -0.918 ± 0.093 | -0.855 ± 0.11 |
| GGACAGCAAUAUUACGUGCA | -0.37 ± 0.085 | -0.64 ± 0.09 |
| GGACAGCAAUAUUACGUUUG | -0.577 ± 0.04 | -0.1 ± 0.058 |
| GGAGAGCAAUAUUACGAAUA | -2.51 ± 0.26 | – |
| GGAGAGCAAUAUUACGAGUA | -3.36 ± 0.41 | -2.48 ± 0.32 |
| GGAGAGCAAUAUUACGAUCG | -1.88 ± 0.14 | -0.426 ± 0.16 |
| GGAGAGCAAUAUUACGCGGA | – | -1.29 ± 0.34 |
| GGAGAGCAAUAUUACGCUCA | -2.77 ± 0.27 | -0.851 ± 0.26 |
| GGAGAGCAAUAUUACGCUGG | -2.21 ± 0.29 | -2.41 ± 0.44 |
| GGAGAGCAAUAUUACGGAUA | -4.36 ± 0.46 | -2.05 ± 0.24 |
| GGAGAGCAAUAUUACGUAAG | -2.82 ± 0.19 | -0.478 ± 0.21 |
| GGAGAGCAAUAUUACGUGCG | -1.7 ± 0.14 | -2.06 ± 0.23 |

| Sequence | self-splicing fitness (ln) (30 °C) | self-splicing fitness (ln) (37 °C) |
| --- | --- | --- |
| GGAUAGCAAUAUUACGAAAC | -1.67 ± 0.31 | -0.834 ± 0.23 |
| GGAUAGCAAUAUUACGAAUU | -2.56 ± 0.21 | -1.57 ± 0.19 |
| GGAUAGCAAUAUUACGACCC | -0.96 ± 0.23 | – |
| GGAUAGCAAUAUUACGAGGC | -3.93 ± 0.31 | -2.43 ± 0.37 |
| GGAUAGCAAUAUUACGCAGC | -3.14 ± 0.25 | -1.59 ± 0.2 |
| GGAUAGCAAUAUUACGCAUG | -0.819 ± 0.12 | 0.00525 ± 0.14 |
| GGAUAGCAAUAUUACGCCGA | -0.933 ± 0.13 | -0.0698 ± 0.14 |
| GGAUAGCAAUAUUACGCGAU | -3.65 ± 0.3 | -2.91 ± 0.47 |
| GGAUAGCAAUAUUACGCGCA | -0.345 ± 0.14 | 0.0709 ± 0.14 |
| GGAUAGCAAUAUUACGCGCU | -2.14 ± 0.23 | -0.904 ± 0.23 |
| GGAUAGCAAUAUUACGCUAG | -2.26 ± 0.19 | -1.21 ± 0.18 |
| GGAUAGCAAUAUUACGCUUC | -3.86 ± 0.35 | – |
| GGAUAGCAAUAUUACGGAUG | -3.16 ± 0.33 | -0.578 ± 0.18 |
| GGAUAGCAAUAUUACGGCUA | -0.0854 ± 0.16 | -0.532 ± 0.14 |
| GGAUAGCAAUAUUACGGUAG | – | -3.74 ± 0.34 |
| GGAUAGCAAUAUUACGGUAU | -1.48 ± 0.084 | -0.924 ± 0.09 |
| GGAUAGCAAUAUUACGGUGA | -2.43 ± 0.1 | -1.14 ± 0.091 |
| GGAUAGCAAUAUUACGUCAC | -2.88 ± 0.27 | -2.05 ± 0.26 |
| GGAUAGCAAUAUUACGUGGU | -2.33 ± 0.14 | -2.09 ± 0.17 |
| GGAUAGCAAUAUUACGUUGA | -3.16 ± 0.24 | -1.25 ± 0.18 |
| GGCAAGCAAUAUUACGAAAU | -0.0122 ± 0.15 | -0.727 ± 0.12 |
| GGCAAGCAAUAUUACGAACC | -2.41 ± 0.36 | -0.982 ± 0.24 |
| GGCAAGCAAUAUUACGAACG | -0.449 ± 0.068 | -0.593 ± 0.061 |
| GGCAAGCAAUAUUACGACAU | -0.288 ± 0.012 | 0.141 ± 0.032 |
| GGCAAGCAAUAUUACGACUU | -0.555 ± 0.082 | 0.226 ± 0.083 |

| Sequence | self-splicing fitness (ln) (30 °C) | self-splicing fitness (ln) (37 °C) |
| --- | --- | --- |
| GGCAAGCAAUAUUACGAUCA | -0.849 ± 0.12 | -0.349 ± 0.098 |
| GGCAAGCAAUAUUACGAUCC | -1.31 ± 0.22 | -0.615 ± 0.27 |
| GGCAAGCAAUAUUACGAUCU | -0.22 ± 0.097 | -0.162 ± 0.13 |
| GGCAAGCAAUAUUACGCAAG | -4.16 ± 0.36 | -2.04 ± 0.23 |
| GGCAAGCAAUAUUACGCAUA | -0.239 ± 0.12 | 0.0644 ± 0.13 |
| GGCAAGCAAUAUUACGCCCG | -2.21 ± 0.45 | – |
| GGCAAGCAAUAUUACGCGAA | -0.953 ± 0.12 | 0.499 ± 0.13 |
| GGCAAGCAAUAUUACGCGGC | -3.13 ± 0.28 | -2.88 ± 0.41 |
| GGCAAGCAAUAUUACGCUAC | -3.33 ± 0.27 | -2.79 ± 0.23 |
| GGCAAGCAAUAUUACGCUCA | -1.21 ± 0.13 | 0.321 ± 0.17 |
| GGCAAGCAAUAUUACGCUUC | -1.44 ± 0.21 | -2.39 ± 0.42 |
| GGCAAGCAAUAUUACGGCUG | -1.68 ± 0.1 | -0.318 ± 0.16 |
| GGCAAGCAAUAUUACGGGCG | 0.0849 ± 0.086 | -0.132 ± 0.096 |
| GGCAAGCAAUAUUACGGGGG | -2.86 ± 0.16 | -2.54 ± 0.22 |
| GGCAAGCAAUAUUACGGUAG | -2.27 ± 0.11 | -2.2 ± 0.11 |
| GGCAAGCAAUAUUACGGUGA | -0.759 ± 0.071 | -0.336 ± 0.077 |
| GGCAAGCAAUAUUACGGUGG | -2.24 ± 0.11 | -1.81 ± 0.14 |
| GGCAAGCAAUAUUACGGUUC | -0.000497 ± 0.07 | -0.268 ± 0.1 |
| GGCAAGCAAUAUUACGUAGC | -2.4 ± 0.33 | -2.24 ± 0.32 |
| GGCAAGCAAUAUUACGUGCA | -0.303 ± 0.068 | -0.635 ± 0.074 |
| GGCAAGCAAUAUUACGUUAA | -1.09 ± 0.1 | -0.115 ± 0.1 |
| GGCAAGCAAUAUUACGUUAU | -0.941 ± 0.065 | -0.757 ± 0.071 |
| GGCAAGCAAUAUUACGUUGU | -3.52 ± 0.16 | -2.6 ± 0.21 |
| GGCCAGCAAUAUUACGAAAA | -2.32 ± 0.24 | -2.23 ± 0.46 |
| GGCCAGCAAUAUUACGAACA | -3.34 ± 0.28 | -2.03 ± 0.19 |

| Sequence | self-splicing fitness (ln) (30 °C) | self-splicing fitness (ln) (37 °C) |
| --- | --- | --- |
| GGCCAGCAAUAUUACGAGUU | -0.659 ± 0.1 | -1 ± 0.11 |
| GGCCAGCAAUAUUACGAUAA | -3.64 ± 0.4 | -1.09 ± 0.15 |
| GGCCAGCAAUAUUACGAUGG | -4.28 ± 0.33 | -2.67 ± 0.33 |
| GGCCAGCAAUAUUACGCACU | -0.947 ± 0.13 | 0.319 ± 0.16 |
| GGCCAGCAAUAUUACGCCCC | -1.65 ± 0.17 | -0.851 ± 0.26 |
| GGCCAGCAAUAUUACGCCGU | -2.39 ± 0.22 | -1.48 ± 0.19 |
| GGCCAGCAAUAUUACGCGGC | -3.46 ± 0.24 | – |
| GGCCAGCAAUAUUACGCGUC | -2.97 ± 0.12 | -1.75 ± 0.15 |
| GGCCAGCAAUAUUACGCUAU | -1.35 ± 0.054 | -1.02 ± 0.063 |
| GGCCAGCAAUAUUACGGACA | -0.666 ± 0.12 | -1.01 ± 0.17 |
| GGCCAGCAAUAUUACGGAGC | -2.25 ± 0.18 | -0.92 ± 0.21 |
| GGCCAGCAAUAUUACGGAUA | -1.41 ± 0.12 | -1.02 ± 0.14 |
| GGCCAGCAAUAUUACGGCCA | -2.42 ± 0.16 | -1.03 ± 0.17 |
| GGCCAGCAAUAUUACGGCGA | 0.0969 ± 0.095 | 0.581 ± 0.11 |
| GGCCAGCAAUAUUACGGGAA | -1.98 ± 0.11 | -0.198 ± 0.11 |
| GGCCAGCAAUAUUACGGGCU | -2.4 ± 0.2 | -3.16 ± 0.47 |
| GGCCAGCAAUAUUACGGGGA | -0.876 ± 0.068 | -0.469 ± 0.073 |
| GGCCAGCAAUAUUACGGUAA | -0.188 ± 0.053 | 0.0838 ± 0.061 |
| GGCCAGCAAUAUUACGUAAA | -1.26 ± 0.11 | -0.35 ± 0.14 |
| GGCCAGCAAUAUUACGUAGG | -2.19 ± 0.14 | -1.85 ± 0.18 |
| GGCCAGCAAUAUUACGUCGA | -2.72 ± 0.21 | -1.46 ± 0.2 |
| GGCCAGCAAUAUUACGUUCU | -0.00519 ± 0.082 | 0.108 ± 0.089 |
